Laboratory results reported in patent US20220401523A1.

B1: mature human wild-type FGF21, FGF21(His29-Ser209), Q9NSA1 29-209 (ligand)
chain: HPIPDSSPLLQFGGQVRQRYLYTDDAQQTEAHLEIREDGTVGGAADQSPESLLQLKALKPGVIQILGVKTSRFLCQRPDGALYGSLHFDPEACSFRELLLEDGYNVYQSEAHGLPLHLPGNKSPHRDPAPRGPARFLPLPGLPPAPPEPPGILAPQPPDVGSSDPLSMVGPSQGRSPSYAS

How the values were obtained:
[1] = target: human glucagon-like peptide-1 (GLP-1) receptor (human) (UniProt P43220); experiment: cell-based or functional assay
[2] = target: human FGFR1c (FGF receptor 1c isoform) together with human beta-Klotho (KLB) (human), P11362; experiment: cell-based or functional assay
Sequence of human FGFR1c (FGF receptor 1c isoform) together with human beta-Klotho (KLB) (human), P11362 (P11362 22-822, chain 1 of 2): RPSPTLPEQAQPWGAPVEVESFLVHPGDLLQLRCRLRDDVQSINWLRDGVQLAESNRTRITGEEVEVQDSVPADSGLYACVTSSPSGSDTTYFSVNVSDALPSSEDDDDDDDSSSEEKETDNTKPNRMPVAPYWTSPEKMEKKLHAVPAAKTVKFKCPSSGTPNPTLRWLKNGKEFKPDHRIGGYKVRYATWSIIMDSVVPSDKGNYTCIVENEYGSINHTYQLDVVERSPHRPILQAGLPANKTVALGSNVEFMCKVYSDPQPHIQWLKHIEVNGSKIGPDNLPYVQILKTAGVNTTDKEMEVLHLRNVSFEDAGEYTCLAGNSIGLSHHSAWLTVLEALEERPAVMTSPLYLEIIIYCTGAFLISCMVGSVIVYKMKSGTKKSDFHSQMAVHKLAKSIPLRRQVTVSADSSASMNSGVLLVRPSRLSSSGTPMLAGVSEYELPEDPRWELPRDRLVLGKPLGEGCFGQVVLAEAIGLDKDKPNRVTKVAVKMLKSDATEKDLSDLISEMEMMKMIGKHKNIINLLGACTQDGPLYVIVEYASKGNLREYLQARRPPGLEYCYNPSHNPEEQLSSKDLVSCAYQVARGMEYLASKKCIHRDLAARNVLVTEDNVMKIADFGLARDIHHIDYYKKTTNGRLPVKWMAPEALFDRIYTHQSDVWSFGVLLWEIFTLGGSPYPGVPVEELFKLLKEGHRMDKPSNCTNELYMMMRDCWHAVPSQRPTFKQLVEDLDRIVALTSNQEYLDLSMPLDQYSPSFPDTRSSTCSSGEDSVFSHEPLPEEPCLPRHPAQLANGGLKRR
Sequence of human FGFR1c (FGF receptor 1c isoform) together with human beta-Klotho (KLB) (human), P11362 (Q86Z14 whole entry, chain 2 of 2, further chain, canonical isoform): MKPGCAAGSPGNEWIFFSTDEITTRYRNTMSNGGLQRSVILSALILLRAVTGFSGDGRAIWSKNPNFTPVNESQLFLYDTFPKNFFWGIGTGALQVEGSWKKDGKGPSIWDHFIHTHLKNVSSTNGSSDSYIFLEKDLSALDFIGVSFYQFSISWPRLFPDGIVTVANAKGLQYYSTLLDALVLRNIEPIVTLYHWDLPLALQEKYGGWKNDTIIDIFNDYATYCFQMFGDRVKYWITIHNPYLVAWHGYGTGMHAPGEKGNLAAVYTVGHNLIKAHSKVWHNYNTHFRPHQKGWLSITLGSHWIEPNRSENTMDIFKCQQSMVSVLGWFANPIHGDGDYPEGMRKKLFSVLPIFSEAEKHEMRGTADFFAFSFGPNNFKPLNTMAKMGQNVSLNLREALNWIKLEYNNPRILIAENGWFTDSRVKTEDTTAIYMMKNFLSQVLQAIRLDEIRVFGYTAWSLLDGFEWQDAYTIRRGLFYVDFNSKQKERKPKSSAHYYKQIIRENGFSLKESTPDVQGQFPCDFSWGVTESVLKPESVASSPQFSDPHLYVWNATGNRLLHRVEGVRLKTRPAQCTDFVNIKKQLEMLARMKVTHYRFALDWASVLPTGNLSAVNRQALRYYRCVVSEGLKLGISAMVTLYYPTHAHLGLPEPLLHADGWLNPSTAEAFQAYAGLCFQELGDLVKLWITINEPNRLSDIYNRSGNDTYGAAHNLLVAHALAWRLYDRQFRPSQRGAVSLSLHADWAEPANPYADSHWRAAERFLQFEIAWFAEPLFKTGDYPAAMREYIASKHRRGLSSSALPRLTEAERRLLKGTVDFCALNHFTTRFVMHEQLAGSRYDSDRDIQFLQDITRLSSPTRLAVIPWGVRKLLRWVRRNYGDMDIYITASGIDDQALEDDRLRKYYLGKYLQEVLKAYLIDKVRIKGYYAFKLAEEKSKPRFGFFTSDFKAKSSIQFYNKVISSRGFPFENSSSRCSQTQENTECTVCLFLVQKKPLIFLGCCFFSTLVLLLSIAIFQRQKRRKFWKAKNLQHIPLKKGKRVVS

Sequence of UniProt P43220 (P43220 24-463): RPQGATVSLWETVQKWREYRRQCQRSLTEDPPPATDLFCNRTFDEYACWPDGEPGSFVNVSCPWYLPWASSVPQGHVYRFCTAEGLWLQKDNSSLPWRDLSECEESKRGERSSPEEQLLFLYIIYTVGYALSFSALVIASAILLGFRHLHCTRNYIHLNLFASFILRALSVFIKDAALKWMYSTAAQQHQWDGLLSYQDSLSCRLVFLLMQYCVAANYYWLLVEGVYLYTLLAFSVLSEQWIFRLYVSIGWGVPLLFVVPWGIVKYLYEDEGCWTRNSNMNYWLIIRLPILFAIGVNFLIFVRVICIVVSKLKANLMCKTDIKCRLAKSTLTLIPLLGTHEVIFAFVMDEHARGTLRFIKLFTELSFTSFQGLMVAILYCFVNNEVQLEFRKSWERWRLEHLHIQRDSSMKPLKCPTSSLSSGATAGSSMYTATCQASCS

Row | Molecule | EC50 of cAMP response (HTRF) [1] [nM] | Ratio GLP-1R agonistic activity: native GLP-1(7-36)/tested GLP-1R agonist [1] [fold] | pERK ICW EC50 (downstream activation of the MAP kinase ERK1/2, In-Cell Western) [2] [nmol/L] | pFGFR ICW EC50 (FGF21 receptor autophosphorylation, In-Cell Western) [2] [nmol/L]
1 | GLP1(7-36) A8G, V16L, S18I, Y19Q, E21D, G22E, Q23E, A25V, K26R, E27L, A30E, V33E, K34A, G35T, R36G, (Fc fusion) | 0.675 | 877 | – | –
2 | GLP1(7-36) A8G, V16L, S18I, Y19Q, E21D, G22E, Q23E, A25V, K26R, E27L, A30E, V33L, K34A, G35T, R36G, (Fc fusion) | 0.0605 | 78.6 | – | –
3 | GLP1(7-36) A8G, V16L, S18K, Y19Q, E21D, G22E, Q23E, A25V, K26Q, E27L, A30E, V33L, K34A, G35T, R36G, (Fc fusion) | 0.173 | 225 | – | –
4 | GLP1(7-36) A8G, V16L, S18K, Y19Q, G22E, Q23E, A25V, K26Q, E27L, A30E, V33E, K34A, G35T, R36G, insPSS (Fc fusion) | 0.134 | 174 | – | –
5 | B1 | – | – | 0.18 | 4.8
